This is an account of results in patent US9259479B2, “Treatment for comorbid diabetes with chronic kidney disease” (Eli Lilly and Company, priority 2012, dated 2016).

For the data set the following is noted: rat, in vivo.

Read-outs that look alike come from different tables or passages of the source.

Procedure: To induce diabetes, 10-week old male Harlan Sprague Dawley rats (Harlan, Indianapolis, Ind., USA) 250-280 g body weight, are dosed intravenously (IV) via tail vein with 45 mg/kg streptozotocin (STZ) in 0.5 M citric acid, pH 4.5, three days prior to study. […] Graphical and noncompartmental PK analyses are performed using SigmaPlot v11 (Systsat Software, Inc., San Jose, Calif.) and WinNonlin® Professional v5.3 (Pharsight®, St Louis, Mo., USA), respectively.

In the case of PEG20kDa-LysB29 human insulin, the “PK profile of the two molecules compared” value is “statistically similar”. Moreover, the Tmax (male, Harlan Sprague Dawley, sc) came out at 12 ± 0 h. The CL/F (male, Sprague Dawley, sc) is 1.13 ± 0.12 mL/min/kg. Moreover, the CL/F (sc) came out at 1.67 ± 0.33 mL/min/kg. Under “sc, 93 nmol/kg”, this substance registered a Cmax of 41.1 ± 6.3 nM.
